In the test the target is afTMEM16 scramblase from Aspergillus fumigatus (Aspergillus fumigatus). In words: cryo-EM structure.

The substance “afTMEM16 scramblase from Aspergillus fumigatus (natural protein)” had a stoichiometry N of 2.

As a reminder, the stoichiometry N is a count of units in the complex or per binding partner.

The values above are taken from doi:10.1101/420174.
